One data set has as its target KaiCRS (Cereibacter sphaeroides, UniProt A0AAX7FLD9, E415S/E416S). Kind of data set: […] phosphoryl transfer from phosphoserine to ADP, TLC autoradiography. As to conditions: 4 mM ADP, ATP synthase reaction in CII domain, Ser413, pH 6.5, 30 °C. The format is biochemical.
The next data set deals with T1, KaiCRS-Δcoil (Cereibacter sphaeroides, UniProt A0AAX7FLD9, E415S/E416S).
T1 construct: C-terminal coiled-coil truncated at Glu490 (stop codon introduced at position 490)
T1 sequence (A0AAX7FLD9 entry or part of it E415S/E416S): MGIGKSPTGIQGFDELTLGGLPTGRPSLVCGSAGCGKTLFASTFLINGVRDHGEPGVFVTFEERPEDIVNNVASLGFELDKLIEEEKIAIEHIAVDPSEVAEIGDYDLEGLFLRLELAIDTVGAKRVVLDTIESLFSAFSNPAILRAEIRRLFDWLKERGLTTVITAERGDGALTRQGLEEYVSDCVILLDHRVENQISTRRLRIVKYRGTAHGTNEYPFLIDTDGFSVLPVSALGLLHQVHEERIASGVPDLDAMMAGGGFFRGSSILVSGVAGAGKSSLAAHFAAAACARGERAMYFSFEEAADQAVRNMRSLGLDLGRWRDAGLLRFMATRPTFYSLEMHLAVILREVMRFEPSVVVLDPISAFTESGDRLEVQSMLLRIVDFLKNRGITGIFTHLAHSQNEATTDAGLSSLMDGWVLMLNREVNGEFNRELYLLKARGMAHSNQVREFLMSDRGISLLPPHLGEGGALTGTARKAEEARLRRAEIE
Kind of data set: X-ray crystal structure. The format is binding. As to conditions: ADP in all active sites.

Data set [1] concerns the target KaiCRS-S413E/S414E (phosphomimetic mutant) (Rhodobacter sphaeroides strain KD131/KCTC 12085). Description: cryo-EM structure; KaiCRS-S413E/S414E:KaiBRS complex, 20 mM MOPS pH 6.50, 50 mM NaCl, 2 mM TCEP, 10 mM MgCl2, 2 mM ATP; ADP in the CI domain.
Data set [2] has as its target KaiC from Rhodobacter sphaeroides KD131, wild type, full length (KaiCRS) (Rhodobacter sphaeroides strain KD131/KCTC 12085).
Data set [3] shares this target. Kind of data set: fluorescence polarisation; anisotropy competition, 30 °C: KaiBRS-6IAF (0.2-0.4 μM) with KaiCRS (1 μM), unlabelled KaiBRS 0-50 μM, 20 mM MOPS pH 6.5, 50 mM NaCl, 2 mM TCEP, 10 mM MgCl2, 4 mM ADP; 4 h or 12 h; Kd calculated from IC50.
Data set [4] deals with KaiCRS-S413E/S414E (phosphomimetic mutant) (Rhodobacter sphaeroides strain KD131/KCTC 12085). Described as above.
Data set [5] has as its target KaiC from Rhodobacter sphaeroides KD131, wild type, full length (KaiCRS) (Rhodobacter sphaeroides strain KD131/KCTC 12085). The source holds these as a separate data set.
Data set [6] shares this target. Description: crystal structure; KaiCRS, sitting drop at 291 K; protein 10 mg/ml in 20 mM MOPS pH 6.5, 50 mM NaCl, 2 mM TCEP, 5 mM MgCl2, 3 mM ATP, 1 mM AMPPCP; 200 mM MgCl2, 100 mM HEPES pH 7.5, 30% PEG 400.
Data set [7] has the same target. Kind of data set: SEC; Superdex-200 10/300 GL, about 40-80 μM protein, 20 mM MOPS pH 6.5, 50 mM NaCl, 2 mM TCEP, 10 mM MgCl2, 1 mM ATP, 4 °C. A general note: In gel filtration, larger molecules generally elute earlier.
The target is the same in data set [8]. Kind of data set: SEC; Superdex-200 10/300 GL, unphosphorylated KaiCRS (40 μM) bound with ADP, buffer with 0.1 mM ADP instead of ATP, 4 °C.
For data set [9] the target is unchanged. Kind of data set: AUC; sedimentation velocity, 30,000 r.p.m., 20 °C, 295 nm; 100 μM protein, 1 mM ATP (KaiCRS forms: 20 mM MOPS pH 6.5, 50 mM NaCl; KaiCSE: 20 mM MOPS pH 8.0, 150 mM NaCl).
Data set [10] deals with KaiCRS-CI domain (KaiCIRS) (Rhodobacter sphaeroides strain KD131/KCTC 12085). Kind of data set: SEC; Superdex-200 10/300 GL, about 40-80 μM protein, 20 mM MOPS pH 6.5, 50 mM NaCl, 2 mM TCEP, 10 mM MgCl2, 1 mM ATP, 4 °C.
Data set [11] addresses His6-MBP-TEV-KaiBRS (KaiBRS-tag) (Rhodobacter sphaeroides strain KD131/KCTC 12085). Description: pull-down; as a10 but with 4 mM ATP and an ATP-recycling system instead of ADP.
Data set [12] addresses KaiCRS-S413E/S414E (phosphomimetic mutant) (Rhodobacter sphaeroides strain KD131/KCTC 12085). Description: cryo-EM structure; KaiCRS-S413E/S414E alone, 4.3 mg/ml in 20 mM MOPS pH 6.50, 50 mM NaCl, 2 mM TCEP, 10 mM MgCl2, 2 mM ATP; hexamers processed with C6, dodecamer with D6 symmetry.
Data set [13] addresses KaiCRS-Δcoil (KaiCRS truncated at residue Glu490) (Rhodobacter sphaeroides strain KD131/KCTC 12085). Description: crystal structure; KaiCRS-Δcoil, sitting drop at 291 K; 200 mM ammonium acetate, 100 mM sodium citrate pH 5.6, 30% PEG 4,000; space group C2221, three monomers in the asymmetric unit, hexamer by PISA.
Data set [14] has the same target. Description: SEC; Superdex-200 10/300 GL, about 40-80 μM protein, 20 mM MOPS pH 6.5, 50 mM NaCl, 2 mM TCEP, 10 mM MgCl2, 1 mM ATP, 4 °C.
The target is the same in data set [15]. Kind of data set: AUC; sedimentation velocity, 30,000 r.p.m., 20 °C, 295 nm; 100 μM protein, 1 mM ATP (KaiCRS forms: 20 mM MOPS pH 6.5, 50 mM NaCl; KaiCSE: 20 mM MOPS pH 8.0, 150 mM NaCl).
Data set [16] deals with the molecule itself. Description: SEC; Superdex-75 10/300 GL, KaiBRS 0.5 mM, 20 mM MOPS pH 6.5, 50 mM NaCl, 2 mM TCEP, 4 °C.
Data set [17] concerns the molecule itself. Description: AUC; sedimentation velocity, 30,000 r.p.m., 20 °C, 295 nm; 100 μM protein, 1 mM ATP (KaiCRS forms: 20 mM MOPS pH 6.5, 50 mM NaCl; KaiCSE: 20 mM MOPS pH 8.0, 150 mM NaCl).

His6-MBP-TEV-KaiBRS (KaiBRS-tag) (Rhodobacter sphaeroides strain KD131/KCTC 12085), sequence (main, as listed by the source): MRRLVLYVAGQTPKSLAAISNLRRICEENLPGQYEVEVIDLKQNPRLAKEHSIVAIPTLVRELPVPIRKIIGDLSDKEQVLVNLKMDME
KaiCRS, sequence (A0AAX7FLD9 entry or part of it E415S/E416S): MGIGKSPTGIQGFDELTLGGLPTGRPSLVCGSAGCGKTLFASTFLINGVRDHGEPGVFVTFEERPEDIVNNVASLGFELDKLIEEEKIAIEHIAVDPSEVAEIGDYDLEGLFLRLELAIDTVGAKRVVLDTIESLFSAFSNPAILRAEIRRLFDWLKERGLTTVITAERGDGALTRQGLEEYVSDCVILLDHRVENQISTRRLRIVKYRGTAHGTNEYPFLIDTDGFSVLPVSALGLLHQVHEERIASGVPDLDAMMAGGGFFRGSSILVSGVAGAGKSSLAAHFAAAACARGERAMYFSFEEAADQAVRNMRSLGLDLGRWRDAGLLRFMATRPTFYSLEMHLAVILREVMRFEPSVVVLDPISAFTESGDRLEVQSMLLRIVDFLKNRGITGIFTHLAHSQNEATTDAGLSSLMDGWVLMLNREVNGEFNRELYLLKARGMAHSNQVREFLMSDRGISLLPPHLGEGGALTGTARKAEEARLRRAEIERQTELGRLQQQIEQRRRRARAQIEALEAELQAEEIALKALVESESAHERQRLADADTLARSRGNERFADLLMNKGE

On to `Nc1ncnc2c1ncn2[C@@H]1O[C@H](COP(=O)(O)OP(=O)(O)O)[C@@H](O)[C@H]1O` [ADP], for which the “32P phosphoryl transfer from phosphoserine to ADP, TLC autoradiography” value on KaiCRS is listed as “KaiCRS undergoes dephosphorylation through an ATP synthase mechanism”. The X-ray crystal structure entry on KaiCRS-Δcoil is “contained three monomers in the asymmetric unit, with ADP present in all active sites”.
In general, Kd refers to the constant that tells how readily two partners part at equilibrium. “KaiB from Rhodobacter sphaeroides KD131 (KaiBRS), tag cleaved (natural protein)” had a stoichiometry N (KaiBRS per KaiCRS dodecamer) in data set [1] of 12. This molecule gave an ATPase activity of KaiCRS (3.5 μM) with KaiBRS (3.5 μM) in 4 mM ATP, ADP by HPLC, 20-35 °C (with KaiBRS 176, 1052, 1557, 2584; alone 108, 163, 208, 300 day^-1 KaiC^-1) in data set [2] of 2580 ATP/day/KaiC. Besides, the Kd in [3] is 420 nM; in [4], 790 nM. Further, in data set [5], the fold increase in ATPase activity of KaiCRS with KaiBRS at 30 °C was determined as 7.5 fold.
The term stoichiometry N denotes a count of units in the complex or per binding partner. As for “KaiC from Rhodobacter sphaeroides KD131, wild type, full length (KaiCRS) (enzyme)”, the stoichiometry N in [6], in [7], in data set [8] and in data set [9] was 12 in each case.
Molecule “KaiCRS-CI domain (KaiCIRS) (domain or fragment)” displayed a stoichiometry N in data set [10] of 6.
KaiCRS-S413A/S414A (enzyme): the percent co-eluted in [11] was < 30%.
“KaiCRS-S413E/S414E (phosphomimetic mutant) (enzyme)”: the stoichiometry N in [1] and in data set [12] was 12 throughout. Also, in data set [11], the percent co-eluted was < 30%.
For “KaiCRS-Δcoil (KaiCRS truncated at residue Glu490) (domain or fragment)”, the stoichiometry N in [13], in [14] and in data set [15] was 6 in each case.
Take “phosphorylated wild-type KaiCRS (ATP-bound, with ATP-recycling system) (enzyme)”: the percent co-eluted in [11] is < 30%.

B1: KaiB from Synechococcus elongatus PCC 7942 (KaiBSE) (natural protein, UniProt Q79PF5 1-102, looked up)
chain: MSPRKTYILKLYVAGNTPNSVRALKTLKNILEVEFQGVYALKVIDVLKNPQLAEEDKILATPTLAKVLPLPVRRIIGDLSDREKVLIGLDLLYGELQDSDDF
notes: KaiB of Synechococcus elongatus PCC 7942
With B1, in [16], the “stoichiometry N” value stood at 4.

B2: KaiC from Synechococcus elongatus PCC 7942 (KaiCSE) (enzyme)
chain: MTSAEMTSPNNNSEHQAIAKMRTMIEGFDDISHGGLPIGRSTLVSGTSGTGKTLFSIQFLYNGIIEFDEPGVFVTFEETPQDIIKNARSFGWDLAKLVDEGKLFILDASPDPEGQEVVGGFDLSALIERINYAIQKYRARRVSIDSVTSVFQQYDASSVVRRELFRLVARLKQIGATTVMTTERIEEYGPIARYGVEEFVSDNVVILRNVLEGERRRRTLEILKLRGTSHMKGEYPFTITDHGINIFPLGAMRLTQRSSNVRVSSGVVRLDEMCGGGFFKDSIILATGATGTGKTLLVSRFVENACANKERAILFAYEESRAQLLRNAYSWGMDFEEMERQNLLKIVCAYPESAGLEDHLQIIKSEINDFKPARIAIDSLSALARGVSNNAFRQFVIGVTGYAKQEEITGLFTNTSDQFMGAHSITDSHISTITDTIILLQYVEIRGEMSRAINVFKMRGSWHDKAIREFMISDKGPDIKDSFRNFERIISGSPTRITVDEKSELSRIVRGVQEKGPES
notes: KaiC of Synechococcus elongatus PCC 7942; source: plasmid a gift from E. K. O'Shea
Consider B2, for which the “stoichiometry N” value in data set [17] was 6.

These data come from publication PMC10076222, “From primordial clocks to circadian oscillators” (Nature, 2023).
